Assay results from US20230174595A1.

Key:
[1] = target: recombinant His-tagged HIV-1 gp120 Q769.h5 (Clade A) (HIV-1 strain Q769.h5)
[2] = target: recombinant His-tagged HIV-1 gp120 Q769.h5 (Clade A) (HIV-1 strain Q769.h5); test: SPR, His-tagged gp120 on NTA chip (FIG. 7)

| Substance | Kd [1] [nM] | fold increase in affinity compared to AH [2] [fold] |
| --- | --- | --- |
| actinohivin (AH), wild type (from UniProt Q9KWN0 47-160) | 29.6 |  |
| AvFc lectibody (Avaren fused via a linker to the Fc region of human IgG1) (Fc fusion) | 4.2 | 10 |
